Measured values from patent US20230295310A1 (ABCELLERA BIOLOGICS, published 2023).
Numbering of substitutions follows the chain as printed.

B1: mAb 176 (antibody, V domains shown)
VH: EVELVESGGGLVQPGRSLRLSCAASGFKFDDYTMHWVRLPPGKGLEWVSGISWNSGTIDYGDSVKGRFTISRDNAKNSLYLQMNSLRVEDTALYYCAKDTSGYGHYFYYYMDVWGKGTTVTVSS
VL: DIQMTQSPSSLSASIGDRVSITCRTSQIINNYLNWYQQKPGKAPKVLIYSASSLQSGVPSRFSGSGSGTDFTLTINSLQPEDFATYYCQQSYNFPITFGQGTRLELK
notes: VH and VL only
B2: mAb 177 (antibody, V domains shown)
VH: EVQLVESGGGLVQPGMSLRLSCAASGFTFDDYTMHWVRQSPGKGLEWVAGISWNSGTIGYGDSMKGRFTISRDNAKNSLDLQMNSLRVEDTALYYCAKDTSGYGHYYYYFMDVWGKGTTVTVSS
VL: B1 VL with V46L, I75L, N76S, Y87F
notes: VH and VL only; The printed VL holds a letter 'U'
B3: mAb 228 (antibody, V domains shown)
VH: EVQLLESGGGLVQPGGSLRLSCAASGFTFSNYAMNWVRQAPGKGLEWVSTISGSGGGKYYADSVKGRFTISRDNSKNTLYLHMNSLRAEDTAVYYCAKDPVQDRYYFYYYYMDVWGKGTTVTVSS
VL: EIVLTQSPDFQSVTPKEKVTITCRASQSIGSSLHWYQQKPDQSPKLLIKYASQSISGVPSRFSGSGSGTDFTLTINSLEAEDAAAYYCHQSSSLPHTFGQGTKLEIK
notes: VH and VL only
B4: mAb 240 (antibody, V domains shown)
VH: QGKLVESGGGVVQPGRSLRLSCVASGFTFSGYGMHWVRQAPNKGLEWVAIIYYDGKNKYYADSVKGRFTISRDNSKNTLYLQLNSLRAEDTAVYYCVRGPGYNWFDPWGQGTLVTVSS
VL: B3 VL with S28N, Y50H, I55F, A85T, H96Y
notes: VH and VL only
B5: mAb 230 (antibody, V domains shown)
VH: B3 VH with N31S, N35S, T50S, G57S, K58R, H82Q
VL: B3 VL
notes: VH and VL only
B6: mAb 179 (antibody, V domains shown)
VH: EVQLVESGGGLVQPGRSLRLSCAASGFTFDDYTMHWVRQTPGKGLEWVSDISWNSGSIGYADSVKGRFTISRDNAKNTLYLQMNSLRAEDTALYYCVKDSSGYGHYLYYYMDVWGKGTTVTVSS
VL: DIQMTQSPSSLSASVGDRVTITCRASQSIRNYLNWYQQSPGRAPKLLIFSASSLQSGVPSRFSGSGSGTDFTLTISSLQPEDFVTYYCQQRYSTPITFGQGTRLEIK
notes: VH and VL only
B7: mAb 128 (antibody, V domains shown)
VH: B6 VH with T40A, D50G, T78S, V97A, H105Y, L107Y, Y110S
VL: EIVMTQSPATLSVSPGERATLSCRASQSVSSNLAWYQQKPGQAPRLLIYGASTRATGIPARFSGSGSGTEFTLTISSLQSEDFAVYYCQLYYNWPHFGQGTRLAIK
notes: VH and VL only
B8: mAb 172 (antibody, V domains shown)
VH: B6 VH with A23T, A24T, T40V, I58V, T78S, L107F, Y108H
VL: DIQMTQSPSSLSASVGDRVTITCRASQSISNYLNWYQVKPGKAPKVLIYAASSLQSGVPSRFSGSGSGTDFTLTISSLQPEDFVSYYCHQSYNAPITFGQGTRLESK
notes: VH and VL only
B9: mAb 178 (antibody, V domains shown)
VH: B6 VH with T40A, S57T, T78S, L107Y, Y108K
VL: DIQMTQSPSSLSASVGDRVTITCRASQSISNYLNWYQQKAGKVPKVLIYGSSSLQSGVPSRFSGSGSGTDFTLTISSLQPEDFASYYCQQTYSSPLTFGGGTKVDFK
notes: VH and VL only
B10: mAb 167 (antibody, V domains shown)
VH: EVHLVESGGGLVQPGRSLRLSCAASGFTFDDYAMHWVRQAPGKGLEWVSGISWNSGTIGYADSVKGRFTISRDNAKNSLYLEMNSLRAEDTALYYCAKDSSGYGHYYHYYIDVWGTGTTVTVSS
VL: B7 VL with E17G, S30G, G50D, S63R, S77G, A104E
notes: VH and VL only
B11: mAb 171 (antibody, V domains shown)
VH: EVQLVESGGGLVQPGRSLRLSCAASGFTFADYTMHWVRQAPGQGLEWVSGISWNSGSIDYADSVKGRFIISRDNAKKTLYLQMNSLRAEDTALYYCAKDSSGYGHYYFYYLDVWGKGTTVTVSS
VL: B7 VL with G50S, A51T, G66R, F83S, L90Q, Y92N, A104E
notes: VH and VL only
B12: mAb 173 (antibody, V domains shown)
VH: B6 VH with T40V, I58V, T78S, L107F, Y108H
VL: B8 VL with A94T, S106I
notes: VH and VL only
B13: mAb 126 (antibody, V domains shown)
VH: B6 VH with D30N, T40V, D50G, G59D, T78S, V97A, H105Y, L107Y
VL: B7 VL with S31I, Y92H, A104E
notes: VH and VL only
B14: mAb 161 (antibody, V domains shown)
VH: B11 VH with F27I, Q43K, I69T, S85R
VL: B7 VL with S31N, G50S, A51T, G66R, F83S, L90Q, Y92N, A104E
notes: VH and VL only
B15: mAb 158 (antibody, V domains shown)
VH: B11 VH with A40V, Q43K, I58V, I69T
VL: B7 VL with S26T, G50S, A51T, G66R, F83S, L90Q, Y92N, A104E
notes: VH and VL only
B16: mAb 121 (antibody, V domains shown)
VH: B11 VH with A24T, Q43K, I69T, T78S, Y95F
VL: B7 VL with A9G, E17K, A43G, G50S, A51T, F83S, L90H, Y92N, A104E
notes: VH and VL only
B17: mAb 160 (antibody, V domains shown)
VH: B6 VH with A24V, D30N, T40V, D50G, T78S, Y95F, V97A, L107Y, K116R
VL: B7 VL with S30R, S31K, Y92N, A104E
notes: VH and VL only
B18: mAb 118 (antibody, V domains shown)
VH: B6 VH with T40A, D50G, T78S, V97S, H105Y, Y108N, Y110S, M111L
VL: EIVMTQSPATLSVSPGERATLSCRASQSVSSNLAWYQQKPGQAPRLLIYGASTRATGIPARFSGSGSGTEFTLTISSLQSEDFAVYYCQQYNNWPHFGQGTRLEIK
notes: VH and VL only
B19: mAb 170 (antibody, V domains shown)
VH: B6 VH with Q13R, T40A, D50G, T78S, V97S, H105Y, Y108N, Y110S, M111L
VL: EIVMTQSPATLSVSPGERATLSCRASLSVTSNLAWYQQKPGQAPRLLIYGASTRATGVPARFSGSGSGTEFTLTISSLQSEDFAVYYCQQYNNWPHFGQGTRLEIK
notes: VH and VL only
B20: mAb 162 (antibody, V domains shown)
VH: B10 VH with H3Q, D31N, T57S, M83L, H105Y, H108N, I111M, T116K
VL: B7 VL with S30R, R61K, L90Y, A104E
notes: VH and VL only
B21: mAb 140 (antibody, V domains shown)
VH: QVQLVESGGGVVQPGRSLRLSCAASGFTFSTYGMHWVRQAPGKGLEWVAVIWYDGSHKYYADSVKGRFTISRDNSKNTLYLQMNSLRAEDTAVYYCARTGITGTTAYFYFDYWGQGTLVTVSS
VL: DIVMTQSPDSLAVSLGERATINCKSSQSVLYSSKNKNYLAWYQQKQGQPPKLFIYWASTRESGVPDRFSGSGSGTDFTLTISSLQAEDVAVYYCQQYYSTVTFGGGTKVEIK
notes: VH and VL only
B22: mAb 127 (antibody, V domains shown)
VH: EVQLVESGGGLVKTGGSHRLSCVASGFSFKKAWMNWVRQAPGKGLEWVGRIKRNSDGGTTDYAAPVKGRFILSRDDSKNTLYLQMNSLKTEDTAVYYCTTLDSSSWYVGYYYMDVWGKGTTVTVSS
VL: DIQMTQSPSSVSASVGDRVTITCRASQDINNWLAWYQQKPGKAPKILIYTASNLQSGVPSRFSGSGSGTDFTLTISTLQPEDFATYFCQQAHGLPITFGQGTRLEIK
B23: mAb 130 (antibody, V domains shown)
VH: B22 VH with H18L, T59A, G68D, I71T
VL: B22 VL with Q3H, V15L, I21F, K39R, I46L, N53S, T77S, F87Y, G93S, E105G
B24: mAb 129 (antibody, V domains shown)
VH: B22 VH with G10D, H18L, S55T, T59A, G68D, I71T
VL: DIHMTQSPSSVSASLGDRVTFTCRASQDINNWLAWYQQKPGKAPRLLIYTASSLQSGVPSRFSGSGSGTDFTLTISSLQPDDFATYYCQQAHSLPITFGQGTRLGIE
B25: mAb 126 (antibody, V domains shown)
VH: B6 VH with D30N, T40V, D50G, G59D, T78S, V97A, H105Y, L107Y
VL: B7 VL with S31I, Y92H, A104E
B26: mAb 128 (antibody, V domains shown)
VH: B6 VH with T40A, D50G, T78S, V97A, H105Y, L107Y, Y110S
VL: B7 VL

The binders below were run against T1, human CD3e/d (human, UniProt P07766 23-126; P04234 22-105) (assay: SPR (Carterra LSA), mAb on chip).
T1 construct: Bought soluble protein; also called hCD3e/d; human CD3/ed (Sino CT038-H2508H)
Method: High-throughput surface plasmon resonance (SPR) coupled kinetic experiments were performed on a Carterra LSA® instrument equipped with an HC-30M chip type (Carterra, USA). The instrument uses two microfluidic modules, a single-flow cell (SFC) and a 96 printhead, to deliver samples to the chip surface via back-and-forth cycling of a fixed sample volume. An up to 384-ligand array is generated by docking the MFC onto each of the four nested print block locations in a serial manner.
The purified mAbs were immobilized on a Carterra LSA® HC-30M chip by direct coupling. The chip surface was first activated by flowing a freshly prepared 1:1:1 activation mix of 100 mM MES pH 5.5, 100 mM S-NHS, 400 mM EDC for 7 min. mAbs diluted to 10 μg/mL in 10 mM NaOAc pH 4.25+0.01% TWEEN®20 were then injected and printed onto the chip surface simultaneously using the MFC printhead for 10 min. Finally, the chip surface was quenched by flowing 1 M ethanolamine for 7 min (to block the excess reactive esters), followed by 2 wash steps of 15 s each in 25 mM MES pH 5.5. In addition to expressed and purified mAbs, relevant benchmarks and negative control mAbs were also printed on the chip surface.
The data were analyzed using the Carterra Kinetics analysis software. Briefly, the data were referenced with the interstitial reference spots and double-referenced to a buffer cycle, and then fit globally to a 1:1 Langmuir binding model to determine their apparent association (ka) and dissociation (kd) kinetic rate constants and binding affinity constants (KD).

T1 sequence (P07766 23-126, chain 1 of 2): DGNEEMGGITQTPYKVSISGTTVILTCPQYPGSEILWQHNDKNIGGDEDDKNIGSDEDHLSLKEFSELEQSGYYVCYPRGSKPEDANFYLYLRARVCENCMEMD
T1 sequence (P04234 22-105, chain 2 of 2): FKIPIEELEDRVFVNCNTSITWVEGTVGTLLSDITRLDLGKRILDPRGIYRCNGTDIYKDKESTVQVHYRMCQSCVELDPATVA

Row | Kd | Binder
1 | 3.49 nM | B1
2 | 41.1 nM | B2
3 | 25 nM | B3
4 | 18 nM | B4
5 | 18 nM | B5
6 | 7.72 nM | B6
7 | 186 nM | B7
8 | 4.83 nM | B8
9 | 0.992 nM | B9
10 | 6.26 nM | B10
11 | 18.4 nM | B11
12 | 7.11 nM | B12
13 | 9.72 nM | B13
14 | 24.1 nM | B14
15 | 10.3 nM | B15
16 | 21 nM | B16
17 | 15.2 nM | B17
18 | 101 nM | B18
19 | 71.9 nM | B19
20 | 19.4 nM | B20
21 | 635 nM | B21

Each binder was assayed against human CD3 (human, UniProt P07766 23-207; P04234 22-171; P09693 23-182) (assay: cell-based or functional assay).
Sequence of human CD3 (P07766 23-207, chain 1 of 3): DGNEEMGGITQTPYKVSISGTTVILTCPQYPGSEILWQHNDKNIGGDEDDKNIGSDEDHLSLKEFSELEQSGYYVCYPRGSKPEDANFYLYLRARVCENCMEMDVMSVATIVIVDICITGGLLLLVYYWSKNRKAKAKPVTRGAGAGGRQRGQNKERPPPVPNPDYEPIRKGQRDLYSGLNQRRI
Sequence of human CD3 (P04234 22-171, chain 2 of 3): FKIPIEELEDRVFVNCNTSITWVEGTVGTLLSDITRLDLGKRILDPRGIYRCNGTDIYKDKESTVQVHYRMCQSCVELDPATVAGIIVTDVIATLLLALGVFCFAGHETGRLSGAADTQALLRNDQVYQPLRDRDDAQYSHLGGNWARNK
Sequence of human CD3 (P09693 23-182, chain 3 of 3): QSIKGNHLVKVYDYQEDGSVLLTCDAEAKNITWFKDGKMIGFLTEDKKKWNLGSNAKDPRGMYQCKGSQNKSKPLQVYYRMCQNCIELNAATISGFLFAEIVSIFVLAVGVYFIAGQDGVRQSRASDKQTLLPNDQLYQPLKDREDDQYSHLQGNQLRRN

Row | CD4 EC50 (nM); CD69/CD25 on human T cells, plate-coated antibody | CD8 EC50 (nM); CD69/CD25 on human T cells, plate-coated antibody | Binder
22 | 10.2 nM | 10.3 nM | B22
23 | 10.9 nM | 10.8 nM | B23
24 | 12.5 nM | 12.5 nM | B24
25 | 10.2 nM | 11 nM | B25
26 | 11.6 nM | 11.7 nM | B26
